Molecular target: WT FUS::EGFP (FUS tagged with a C-terminal GFP tag) (UniProt P35637)
Test: single-molecule photobleaching step counting

fraction of dimers (two-step photobleaching): 30%
Substance: WT FUS::EGFP (FUS tagged with a C-terminal GFP tag) (from UniProt P35637 1-526)
